Experimental data from patent US20230357838.

Assays:
[1] = tested on: EcDa01 (Escherichia coli)
[2] = molecular target: APOBEC3A (UniProt P31941); conditions: ssDNA deaminase control
[3] = tested on: SaDa02 (Streptomyces sp.)
[4] = tested on: CseDa01 (Candidatus Scybalomonas e)
[5] = tested on: T1, MGYPDa829
T1 sequence: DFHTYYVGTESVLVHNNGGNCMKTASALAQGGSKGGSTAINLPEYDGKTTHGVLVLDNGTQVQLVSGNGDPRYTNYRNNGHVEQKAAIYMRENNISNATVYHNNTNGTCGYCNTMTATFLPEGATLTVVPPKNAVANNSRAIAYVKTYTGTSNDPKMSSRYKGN

[6] = tested on: MmgDa02; conditions: CG 0.446, CH 0.002
[7] = tested on: T2, MGYPDa26 (unidentified)
T2 sequence: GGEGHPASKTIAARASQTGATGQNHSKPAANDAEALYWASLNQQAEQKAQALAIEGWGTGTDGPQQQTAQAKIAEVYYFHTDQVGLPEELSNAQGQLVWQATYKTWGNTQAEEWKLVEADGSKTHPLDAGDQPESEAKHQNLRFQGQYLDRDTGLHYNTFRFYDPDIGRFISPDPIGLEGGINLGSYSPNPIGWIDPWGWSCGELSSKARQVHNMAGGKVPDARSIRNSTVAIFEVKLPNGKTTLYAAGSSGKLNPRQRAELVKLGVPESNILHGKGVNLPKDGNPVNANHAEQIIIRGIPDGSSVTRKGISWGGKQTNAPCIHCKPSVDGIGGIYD

[8] = tested on: T3, MGYPDa06 (unidentified)
T3 sequence: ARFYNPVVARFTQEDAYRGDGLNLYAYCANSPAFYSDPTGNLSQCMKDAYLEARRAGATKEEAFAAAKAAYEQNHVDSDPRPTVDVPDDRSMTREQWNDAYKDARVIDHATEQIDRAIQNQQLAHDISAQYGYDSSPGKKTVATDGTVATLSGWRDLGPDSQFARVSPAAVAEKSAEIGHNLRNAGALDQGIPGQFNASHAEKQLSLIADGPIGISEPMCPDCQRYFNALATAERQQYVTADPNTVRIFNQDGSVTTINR

[9] = tested on: T4, CsDa01 (Chitinophaga silvisoli)
T4 sequence: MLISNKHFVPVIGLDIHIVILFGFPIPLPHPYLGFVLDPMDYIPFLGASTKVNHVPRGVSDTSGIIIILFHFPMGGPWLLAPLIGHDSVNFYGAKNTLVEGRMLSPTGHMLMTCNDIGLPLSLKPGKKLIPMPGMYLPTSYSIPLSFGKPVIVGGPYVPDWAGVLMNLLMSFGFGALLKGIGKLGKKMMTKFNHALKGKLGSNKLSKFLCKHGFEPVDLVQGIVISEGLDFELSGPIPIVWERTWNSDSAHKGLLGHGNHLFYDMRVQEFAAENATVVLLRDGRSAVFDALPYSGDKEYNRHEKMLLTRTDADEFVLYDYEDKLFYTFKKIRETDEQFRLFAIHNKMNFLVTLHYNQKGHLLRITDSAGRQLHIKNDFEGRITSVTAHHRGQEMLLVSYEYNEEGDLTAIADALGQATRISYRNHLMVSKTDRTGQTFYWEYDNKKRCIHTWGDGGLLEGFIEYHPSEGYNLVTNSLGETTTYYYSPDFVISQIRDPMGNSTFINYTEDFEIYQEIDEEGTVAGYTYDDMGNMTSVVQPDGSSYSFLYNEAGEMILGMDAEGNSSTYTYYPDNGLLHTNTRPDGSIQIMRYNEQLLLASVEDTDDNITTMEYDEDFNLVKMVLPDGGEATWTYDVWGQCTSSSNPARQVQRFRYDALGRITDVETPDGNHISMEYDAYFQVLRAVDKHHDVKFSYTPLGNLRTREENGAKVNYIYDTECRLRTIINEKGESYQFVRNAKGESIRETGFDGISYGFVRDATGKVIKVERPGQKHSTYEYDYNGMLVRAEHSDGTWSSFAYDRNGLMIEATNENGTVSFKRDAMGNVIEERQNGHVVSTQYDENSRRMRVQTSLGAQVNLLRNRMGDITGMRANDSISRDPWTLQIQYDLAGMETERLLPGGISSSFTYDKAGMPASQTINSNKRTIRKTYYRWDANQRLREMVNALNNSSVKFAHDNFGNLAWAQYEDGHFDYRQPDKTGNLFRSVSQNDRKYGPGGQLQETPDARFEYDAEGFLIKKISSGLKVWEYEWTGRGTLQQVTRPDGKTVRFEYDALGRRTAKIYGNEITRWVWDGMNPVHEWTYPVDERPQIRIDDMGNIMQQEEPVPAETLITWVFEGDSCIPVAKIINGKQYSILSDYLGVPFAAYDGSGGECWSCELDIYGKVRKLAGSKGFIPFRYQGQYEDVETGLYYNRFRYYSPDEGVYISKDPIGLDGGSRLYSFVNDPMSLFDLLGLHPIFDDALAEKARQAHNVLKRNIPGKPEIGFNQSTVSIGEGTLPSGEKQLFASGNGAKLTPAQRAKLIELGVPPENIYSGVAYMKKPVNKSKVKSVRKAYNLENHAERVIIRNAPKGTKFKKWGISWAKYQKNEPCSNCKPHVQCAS

[10] = tested on: NsDa01 (Neisseria subflava); conditions: 5mC 0.059, 5hmC 0.017
[11] = tested on: T5, chimera_10
T5 sequence: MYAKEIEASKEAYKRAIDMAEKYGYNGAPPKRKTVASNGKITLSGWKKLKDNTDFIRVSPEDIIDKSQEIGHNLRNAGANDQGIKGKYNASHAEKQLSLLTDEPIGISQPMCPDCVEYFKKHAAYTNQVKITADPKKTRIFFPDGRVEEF

[12] = tested on: T6, BaDa01 (Bacillus aerophilus)
T6 sequence: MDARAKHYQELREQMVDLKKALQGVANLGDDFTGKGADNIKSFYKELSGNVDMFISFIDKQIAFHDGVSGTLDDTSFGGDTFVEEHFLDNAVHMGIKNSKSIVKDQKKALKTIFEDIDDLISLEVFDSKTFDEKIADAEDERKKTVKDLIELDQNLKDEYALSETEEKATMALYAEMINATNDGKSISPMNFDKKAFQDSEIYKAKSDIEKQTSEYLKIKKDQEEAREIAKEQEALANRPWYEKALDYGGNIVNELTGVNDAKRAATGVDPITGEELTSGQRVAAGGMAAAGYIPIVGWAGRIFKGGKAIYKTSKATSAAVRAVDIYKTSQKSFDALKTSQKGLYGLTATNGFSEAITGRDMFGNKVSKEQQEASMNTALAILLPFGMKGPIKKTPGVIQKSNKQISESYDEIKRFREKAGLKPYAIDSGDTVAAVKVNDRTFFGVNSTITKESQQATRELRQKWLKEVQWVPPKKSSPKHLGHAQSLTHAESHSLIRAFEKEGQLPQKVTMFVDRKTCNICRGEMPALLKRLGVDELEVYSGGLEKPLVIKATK

Sequence of APOBEC3A (P31941 other isoform, or with tags, fused parts or gaps): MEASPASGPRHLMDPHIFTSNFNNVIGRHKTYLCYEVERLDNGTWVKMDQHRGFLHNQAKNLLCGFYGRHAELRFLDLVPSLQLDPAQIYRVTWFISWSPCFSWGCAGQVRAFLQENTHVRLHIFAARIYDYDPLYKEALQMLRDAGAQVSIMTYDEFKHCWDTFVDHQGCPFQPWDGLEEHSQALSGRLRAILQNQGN

Q: Which activity (fraction deaminated) [1] does the source give for “unmodified dsDNA (E. coli C2566 genomic)” here?
A: The activity (fraction deaminated) was 0.566.

Q: What about the activity (fraction deaminated) [2] of the same substance?
A: The activity (fraction deaminated) was 0.331.

Q: What about the activity (fraction deaminated) [3] of the same substance?
A: The activity (fraction deaminated) was 0.607.

Q: And the activity (fraction deaminated) [4]?
A: The activity (fraction deaminated) was 0.998.

Q: What about the activity (fraction deaminated) [5] of the same substance?
A: Its activity (fraction deaminated) is 0.956.

Q: What about the activity (fraction deaminated) [6] of the same substance?
A: Its activity (fraction deaminated) is 0.133.

Q: What about the activity (fraction deaminated) [7] of the same substance?
A: Its activity (fraction deaminated) is 0.929.

Q: What about the activity (fraction deaminated) [8] of the same substance?
A: Its activity (fraction deaminated) is 0.997.

Q: And the activity (fraction deaminated) [9]?
A: The activity (fraction deaminated) was 0.913.

Q: And the activity (fraction deaminated) [10]?
A: Its activity (fraction deaminated) is 0.597.

Q: What about the activity (fraction deaminated) [11] of the same substance?
A: Its activity (fraction deaminated) is 0.95.

Q: What about the activity (fraction deaminated) [12] of the same substance?
A: Its activity (fraction deaminated) is 0.612.
